Reference: patent US8093212B2, “Methods of treating nerve-related vision disorders by an insulinomimetic agent” (The Penn State Research Foundation, priority 2002, dated 2012)
Entries after “also recorded” stand apart in the source; their conditions may differ.

Legend:
Akt = experiment: Intraportal insulin injection: retinal Akt (serine 473) phosphorylation Western blot; type: in vivo, Sprague-Dawley rats; details: retina, 45 minutes post-injection, 500 μg insulin bolus via portal vein
Description: (§1) Intraportal insulin injection was performed to determine if a single bolus insulin injection, and therefore an acute elevation in circulating insulin, could activate retinal insulin receptors (IR) in vivo as it does in other tissues. Intraportal insulin injection was conducted as follows. Male Sprague-Dawley rats (Charles River, Mass.) weighing 200 350 g were fasted 18 hours prior to being anesthetized with a 10:1 ketamine:xylazine cocktail (53.5 mg/kg ketamine and 5.33 mg/kg xylazine) administered by intramuscular injection. The fasted rats were administered a 500 μg bolus of insulin, nothing (sham), or vehicle (0.9% saline) via the portal vein. […]
(§2) Tissue lysates were immunoprecipitated and immunoblotted as described by Barber et al. (2001, J. Biol. Chem. 276: 32814 32831). Tissues were homogenized in an immunoprecipitation (IP) lysis buffer (consisting of 50 mM HEPES, pH 7.3, 137 mM NaCl, 1 mM MgCl2, 2 mM NaVO4, 10 mM Na2H2P2O7, 10 mM NaF, 2 mM EDTA, 2 mM PMSF, 10 mM benzamidine, 10% glycerol, 1% NP-40, and 1 protease inhibitor tablet (Boehringer-Mannheim) per 10 mL of buffer. Homogenates were rocked 15 minutes at 4° C. and then centrifuged at 14,000 rpm at 4° C. Prior to immunoprecipitation and immunoblotting, the resulting supernatant was subjected to protein assay (Bio-Rad) and quantification. […]

[1] = biological target: T1, insulin receptor beta-subunit (IRβ) (Rattus norvegicus, UniProt P15127); experiment: Retinal tissue explant culture: IRβ tyrosine phosphorylation; type: cell-based; design: from tissue; host or cells: rat retinal explants; details: 10 nM insulin
Description: (§3) A tissue explant culture system was used to characterize insulin-signaling transduction in retina without the hindrance of the blood retinal barrier present in whole animal models. Such a tissue explant culture system was developed as follows. Rats as described in Examples 1 and 2 were anesthetized using sodium pentobarbital ([…]), and then decapitated upon loss of motor reflexes. Rat retinas were removed by cutting across the cornea, removing the lens, and squeezing the eyeball to rapidly extract the retina. Retinas were pre-incubated in MEM (Sigma) supplemented with 5 mM pyruvate and 10 mM HEPES for 15 minutes at 37° C., 5% CO2, and with gentle shaking. Ten nM insulin or vehicle was added following pre-incubation. At 2, 5, 15, and 30 minutes after insulin addition, retinas were snap-frozen in liquid nitrogen for future use.
To examine the time course of insulin signaling events in the tissue, insulin-treated retinas were compared to retinas that received vehicle (0.9% saline) and to untreated retinas. Tissues were analyzed by immunoprecipitation and Western blotting as described in Example 1.

[2] = 0.0325 U/100 g insulin, subconjunctival space
From the text: This route of administration bypasses the BRB for a more direct route of insulin action on retina. […] The retina was processed for IRβ PY content as described in Example 1.

[3] = biological target: T2, insulin-like growth factor I receptor (IGF-IRβ) (Rattus norvegicus, UniProt P24062); experiment: Retinal explants: IGF-IRβ tyrosine phosphorylation; type: cell-based
T2 construct: from tissue; host or cells: rat retinal explants
Description: as §3
Retinas were treated with either 1.3 nM IGF-1 or 0, 1, 10, 100, and 1000 nM insulin, and then retinal lysates were immunoprecipitated with an insulin-like growth factor I receptor (IGF-IRβ)-specific antibody, followed by PY Western blotting (shown in FIG. 6). The IGF1-R was immunoprecipitated and PY Western blotting performed as described above.

[4] = biological target: T1, insulin receptor beta-subunit (IRβ); experiment: Intraportal insulin injection: retina IRβ tyrosine phosphorylation (PY Western blot); type: in vivo, Sprague-Dawley rats; design: hindquarter skeletal muscle and retina were snap-frozen under liquid nitrogen; from tissue; host or cells: rat retina; details: 500 μg insulin bolus via portal vein, fasted rats
Description: as §1, §2

[5] = tested on: IR and Akt kinase pathway; experiment: Subconjunctival insulin administration: retinal IR and Akt kinase pathway activation; type: in vivo, Sprague-Dawley rats
[6] = biological target: T1, insulin receptor beta-subunit (IRβ); experiment: Intraportal insulin injection: muscle IRβ tyrosine phosphorylation (PY Western blot); type: in vivo, Sprague-Dawley rats; design: hindquarter skeletal muscle and retina were snap-frozen under liquid nitrogen; from tissue; host or cells: rat retina; details: 500 μg insulin bolus via portal vein
Description: Intraportal insulin injection was performed to determine if a single bolus insulin injection, and therefore an acute elevation in circulating insulin, could activate retinal insulin receptors (IR) in vivo as it does in other tissues. Intraportal insulin injection was conducted as follows. Male Sprague-Dawley rats (Charles River, Mass.) weighing 200 350 g were fasted 18 hours prior to being anesthetized with a 10:1 ketamine:xylazine cocktail (53.5 mg/kg ketamine and 5.33 mg/kg xylazine) administered by intramuscular injection. The fasted rats were administered a 500 μg bolus of insulin, nothing (sham), or vehicle (0.9% saline) via the portal vein. At 15, 30, 45 and 60 minutes post injection (shown in FIG. 2A), hindquarter skeletal muscle and retina were snap-frozen under liquid nitrogen, and then stored at −80° C. pending analysis by immunoprecipitation and immunoblotting. There was no difference in insulin receptor beta-subunit (IRβ) phosphorylation between vehicle (V) and insulin (I) injection.
Tissue lysates were immunoprecipitated and immunoblotted as described by Barber et al. (2001, J. Biol. Chem. 276: 32814 32831). Tissues were homogenized in an immunoprecipitation (IP) lysis buffer (consisting of 50 mM HEPES, pH 7.3, 137 mM NaCl, 1 mM MgCl2, 2 mM NaVO4, 10 mM Na2H2P2O7, 10 mM NaF, 2 mM EDTA, 2 mM PMSF, 10 mM benzamidine, 10% glycerol, 1% NP-40, and 1 protease inhibitor tablet (Boehringer-Mannheim) per 10 mL of buffer. Homogenates were rocked 15 minutes at 4° C. and then centrifuged at 14,000 rpm at 4° C. Prior to immunoprecipitation and immunoblotting, the resulting supernatant was subjected to protein assay (Bio-Rad) and quantification.
Immunoprecipitations were performed as follows. […] Fifty μg of protein per sample were analyzed by SDS-polyacrylamide gel electrophoresis (SDS-PAGE). […] Positive signals were detected with […] (ECL) kits (Cell Signaling) and electrochemifluoresence (ECF) kits (Amersham) each performed according to each manufacturer's protocol. […]

T1 sequence (P15127 764-1383 limits assumed): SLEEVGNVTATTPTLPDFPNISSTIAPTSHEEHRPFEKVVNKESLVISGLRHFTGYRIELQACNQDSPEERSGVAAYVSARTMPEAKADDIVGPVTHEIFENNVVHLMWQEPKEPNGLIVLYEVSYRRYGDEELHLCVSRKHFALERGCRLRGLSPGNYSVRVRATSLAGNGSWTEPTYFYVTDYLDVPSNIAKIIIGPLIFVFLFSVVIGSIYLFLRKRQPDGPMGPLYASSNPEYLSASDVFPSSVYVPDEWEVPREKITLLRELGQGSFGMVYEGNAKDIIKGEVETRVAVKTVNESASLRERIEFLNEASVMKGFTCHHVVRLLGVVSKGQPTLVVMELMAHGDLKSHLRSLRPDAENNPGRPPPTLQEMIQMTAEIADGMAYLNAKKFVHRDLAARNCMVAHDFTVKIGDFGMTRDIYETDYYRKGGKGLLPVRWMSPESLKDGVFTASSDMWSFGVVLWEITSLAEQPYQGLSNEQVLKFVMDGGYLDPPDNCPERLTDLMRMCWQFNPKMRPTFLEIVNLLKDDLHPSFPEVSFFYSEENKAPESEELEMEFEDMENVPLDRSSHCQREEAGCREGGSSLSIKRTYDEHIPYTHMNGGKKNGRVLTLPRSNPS
T1 sequence (P15127 27-759 limits assumed): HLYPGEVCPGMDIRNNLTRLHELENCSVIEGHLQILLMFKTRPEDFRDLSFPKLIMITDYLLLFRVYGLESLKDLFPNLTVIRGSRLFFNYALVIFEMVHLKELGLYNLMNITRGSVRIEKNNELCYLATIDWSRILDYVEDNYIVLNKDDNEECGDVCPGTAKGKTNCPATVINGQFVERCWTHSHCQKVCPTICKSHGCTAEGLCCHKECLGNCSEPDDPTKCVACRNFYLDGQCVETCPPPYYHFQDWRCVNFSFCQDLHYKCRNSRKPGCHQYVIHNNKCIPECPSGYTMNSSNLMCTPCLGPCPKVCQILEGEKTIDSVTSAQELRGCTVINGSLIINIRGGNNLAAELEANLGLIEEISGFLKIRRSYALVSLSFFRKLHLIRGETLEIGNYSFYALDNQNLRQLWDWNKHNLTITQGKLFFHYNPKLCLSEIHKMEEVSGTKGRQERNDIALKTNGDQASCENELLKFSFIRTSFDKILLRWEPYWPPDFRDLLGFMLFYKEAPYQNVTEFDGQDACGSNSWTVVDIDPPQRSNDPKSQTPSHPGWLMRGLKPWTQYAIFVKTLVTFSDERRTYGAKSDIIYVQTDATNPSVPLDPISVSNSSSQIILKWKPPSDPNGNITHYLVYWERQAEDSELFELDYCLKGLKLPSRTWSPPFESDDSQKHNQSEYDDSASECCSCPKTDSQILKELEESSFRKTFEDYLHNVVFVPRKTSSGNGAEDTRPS
T2 sequence (P24062 742-1370 limits assumed): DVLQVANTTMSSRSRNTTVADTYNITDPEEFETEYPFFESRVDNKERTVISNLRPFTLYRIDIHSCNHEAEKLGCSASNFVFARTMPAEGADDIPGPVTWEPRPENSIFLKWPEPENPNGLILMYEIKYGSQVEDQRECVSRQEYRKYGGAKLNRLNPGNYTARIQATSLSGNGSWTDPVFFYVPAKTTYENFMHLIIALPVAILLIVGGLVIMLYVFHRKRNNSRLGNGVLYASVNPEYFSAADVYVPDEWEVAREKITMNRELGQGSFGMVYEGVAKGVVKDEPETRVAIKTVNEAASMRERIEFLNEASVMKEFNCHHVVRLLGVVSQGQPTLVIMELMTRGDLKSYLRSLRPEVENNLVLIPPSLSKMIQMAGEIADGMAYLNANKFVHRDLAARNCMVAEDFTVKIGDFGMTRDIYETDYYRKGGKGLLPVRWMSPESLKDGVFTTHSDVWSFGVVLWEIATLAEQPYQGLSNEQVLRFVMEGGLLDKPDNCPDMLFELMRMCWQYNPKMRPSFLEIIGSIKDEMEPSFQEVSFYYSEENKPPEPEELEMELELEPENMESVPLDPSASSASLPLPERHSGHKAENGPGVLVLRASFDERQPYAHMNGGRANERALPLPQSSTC
T2 sequence (P24062 31-737 limits assumed): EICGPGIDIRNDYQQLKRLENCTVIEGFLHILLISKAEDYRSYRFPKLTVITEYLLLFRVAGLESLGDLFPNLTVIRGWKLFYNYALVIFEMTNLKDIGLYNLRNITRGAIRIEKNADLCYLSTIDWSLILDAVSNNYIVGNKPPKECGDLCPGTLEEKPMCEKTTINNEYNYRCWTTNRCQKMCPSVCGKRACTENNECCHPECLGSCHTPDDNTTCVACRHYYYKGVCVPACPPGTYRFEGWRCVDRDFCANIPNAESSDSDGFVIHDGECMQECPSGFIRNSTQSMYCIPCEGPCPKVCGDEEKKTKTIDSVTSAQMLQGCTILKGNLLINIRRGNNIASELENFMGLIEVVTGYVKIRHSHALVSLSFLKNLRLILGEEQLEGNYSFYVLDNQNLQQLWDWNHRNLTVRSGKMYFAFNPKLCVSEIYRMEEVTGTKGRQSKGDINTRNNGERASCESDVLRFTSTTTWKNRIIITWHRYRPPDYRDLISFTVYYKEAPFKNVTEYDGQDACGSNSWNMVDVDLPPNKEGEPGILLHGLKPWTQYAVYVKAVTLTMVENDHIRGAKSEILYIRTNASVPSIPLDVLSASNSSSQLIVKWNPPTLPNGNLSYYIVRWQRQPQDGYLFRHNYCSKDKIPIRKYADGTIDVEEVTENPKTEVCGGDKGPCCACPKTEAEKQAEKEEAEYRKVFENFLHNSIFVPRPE

## insulin
Akt
  increase in phosphoserine 473 content of Akt over vehicle injected controls: 48%
[1]; 30 minute time point
  retinal IRβ phosphotyrosine immunoreactivity, fold greater than baseline: 3 fold
[1]; within 2 minutes of stimulation, normalized to total IRβ
  retinal IRβ phosphotyrosine immunoreactivity, fold greater: ~4 fold
[1]; 2, 5, 15 and 30 minutes, normalized to total IRβ
  retinal explant IRβ phosphorylation (qualitative): significant increase
[2]
  effect on blood glucose values: without lowering blood glucose values
[3]; 10 nM insulin
  IGF-IRβ phosphorylation: remained unchanged
[3]; 100 nM insulin, comparator 1.3 nM IGF-1
  IGF-IRβ phosphorylation: increased
[4]
  time of maximal retinal IRβ tyrosine phosphorylation: 45 min
  time until retinal IRβ tyrosine phosphorylation increased: 30 min
[5]; 0.0325 U/100 g insulin, subconjunctival space, normal rats
  activation of the IR and Akt kinase pathway: activated
[5]; subconjunctival insulin, FIG. 8
  retinal IRβ PY content, insulin eye compared to contralateral vehicle eye: phosphorylated
[6]; fasted rats
  time of peak muscle IRβ phosphotyrosine increase: 30 min
[6]; fasted rats, 15 minutes post-injection, zero time point set to 1
  increase in phosphotyrosine content in muscle IRβ (PY/IRβ ratio): ~30 fold
[6]; 15, 30, 45 and 60 minutes post injection
  muscle IRβ phosphorylation response (qualitative): robust response; also recorded: significant increase
